Blank lines part the entries; values can stand above or below the binder they belong to.
Tests used:
[1] = target: T1, 293T-CTLA-4细胞 (human CTLA-4 on 293T cells) (human, UniProt P16410 36-223); assay: competition FACS on 293T-CTLA-4 cells, competitor CD80-biotin
T1 construct: whole, on cells; also called 人CTLA-4
T1 sequence (looked up): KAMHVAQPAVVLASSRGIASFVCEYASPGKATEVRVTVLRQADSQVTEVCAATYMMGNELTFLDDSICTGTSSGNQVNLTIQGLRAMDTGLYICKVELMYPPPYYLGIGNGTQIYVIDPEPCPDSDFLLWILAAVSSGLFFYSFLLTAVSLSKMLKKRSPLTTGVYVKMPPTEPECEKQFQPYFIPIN

[2] = target: T1, 293T-CTLA-4细胞 (human CTLA-4 on 293T …); assay: FACS on 293T-CTLA-4 cells
[3] = target: T1, 293T-CTLA-4细胞 (human CTLA-4 on 293T …); assay: competition FACS on 293T-CTLA-4 cells, competitor CD80-biotin; the lowest, tied by Table 8 to 3D2A10
[4] = target: T2, CTLA-4-hFc蛋白 (human CTLA-4 fused to human Fc) (human, UniProt P16410 36-161, limits assumed); assay: ELISA, CTLA-4-hFc coated
T2 construct: Coated on ELISA plates; also called CTLA-4-Fc; not shown: human Fc (hFc)
T2 sequence (looked up): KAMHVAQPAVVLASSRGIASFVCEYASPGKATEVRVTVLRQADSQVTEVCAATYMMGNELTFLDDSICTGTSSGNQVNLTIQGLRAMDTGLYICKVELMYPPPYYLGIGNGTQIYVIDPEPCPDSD

[5] = target: T2, CTLA-4-hFc蛋白 (human CTLA-4 fused to …); assay: competition ELISA, CTLA-4-hFc coated, competitor CD80-biotin; the lowest, tied by Table 6 to 3D2A10
[6] = target: T2, CTLA-4-hFc蛋白 (human CTLA-4 fused to …); assay: ELISA, CTLA-4-hFc coated; low end of the group's range, tied by Table 5 to 3D2A10
[7] = target: T2, CTLA-4-hFc蛋白 (human CTLA-4 fused to …); assay: competition ELISA, CTLA-4-hFc coated, competitor CD80-biotin
[8] = target: T1, 293T-CTLA-4细胞 (human CTLA-4 on 293T …); assay: FACS on 293T-CTLA-4 cells; the lowest, tied by Table 7 to 10F8D1

IC50 [1]: 0.696 µg/mL
EC50 [2]: 0.0788 µg/mL
IC50 [3]: < 0.7 µg/mL
EC50 [4]: 0.0012 µg/mL
IC50 [5]: < 0.36 µg/mL
EC50 [6]: 0.001 µg/mL
IC50 [7]: 0.352 µg/mL
B1: 3D2A10人源化抗体 (humanized CTLA-4 antibody 3D2A10, IgG1) (antibody, V domains shown)
VH: QVTLKESGPVLVKPTETLTLTCTVSGFSLTNYAVHWIRQPPGKALEWLGVIWSGGYIDYNAVFISRLTISKDNSKSQAVLTMTNMDPVDTATYYCARSGETGTYYFDYWGQGTLVTVSS
VL: EIVMTQSPATLSVSPGERATLSCRASENIYSYLAWYQQKPGQAPRLLVYSATKLANGIPARFSGSGSGTEYTLTISSLQSEDFAVYYCQHFWGTPWTFGGGTKVEIKR
notes: Humanized by CDR grafting with back mutations, built as IgG1, made in 293 cells; also called 人源化CTLA-4抗体3D2A10

IC50 [1]: 1.66 µg/mL
EC50 [2]: 0.0231 µg/mL
EC50 [4]: 0.00149 µg/mL
EC50 [8]: < 0.024 µg/mL
IC50 [7]: 0.388 µg/mL
B2: 10F8D1人源化抗体 (humanized CTLA-4 antibody 10F8D1, IgG1) (antibody, V domains shown)
VH: QVQLVQSGAEVKKPGASVKVSCKASGYTFTNYWMHWVRQAPGQGLEWIGYINPTTTYTNYNQKFKDRATLTADKSISTAYMELSRLRSDDTAVYYCATTAQATGYGMDFWGQGTLVTVSS
VL: DIVMTQSPDSLAVSLGERATINCKSTQSLLNSGNQRNYLTWYQQKPGQPPKLLIYWASTRESGVPDRFSGSGSGTDFTLTISSLQAEDVAVYYCQNDYSFPLTFGQGTKLEIKR
notes: Humanized by CDR grafting with back mutations, built as IgG1, made in 293 cells; also called 人源化CTLA-4抗体10F8D1

From patent CN110256561A (DONGDA BIOLOGY TECH SUZHOU CO LTD, dated 2019)
